Measurements: US12303551B2, “Cellular immunotherapy compositions and uses thereof” (CERO THERPEUTICS HOLDINGS, INC., priority 2018, dated 2025)

Each molecule was assayed on SCC152 cells (assay: Elimination of GFP-expressing SCC152 target cells over time (quantification and time lapse imaging)). Conditions: 96-well co-culture, CD8+/E7 TCR + CD4+/CER + SCC152 1:1:1, compared to control.
Assay type: cell-based
Experimental: Target SCC152 cells were co-cultured with CD8+ T cells transduced with HPV E7 TCR+CD4+ T cells transduced with a selected CER, or controls (CD8+ T cell transduced with HPV E7 TCR+CD4+ transduced control) at a 1:1:1 ratio. The number of target cells were quantified using imaging software. 0 hours, 24 hours, and 48 hours are shown from left to right.
(§1) FIG. 21 is time lapse imaging from 96-well co-culture experiments comprising CD8+ T cells transduced with HPV16 E7 TCR+CD4+ T cells transduced with CER5, CER17 or CER19 incubated with SCC152 target cells at a 1:1:1 ratio. SCC152 HPV+ target cells were quantified using automated cell counting software.
as §1, with “22” for “21”, “CER21, CER23” for “CER5, CER17”, “CER26” for “CER19”
as §1, with “23” for “21”, “CER103b, CER104” for “CER5, CER17”, “CER105” for “CER19”
as §1, with “24” for “21”, “CER106, CER116” for “CER5, CER17”, “CER27” for “CER19”
FIG. 57 is a bar graph showing quantification of loss of SCC152 HPV16+ target cells over time during co-culture assays. SCC152 cells were transduced with green fluorescent protein (GFP) and co-cultured with CD8+ T cells transduced with HPV16 E7 TCR and CD4+ T cells transduced with a selected CER (CER29, CER30, CER110, CER112, CER113, CER114, CER116, or CER117) or a CD4+ T cell control at a 1:1:1 ratio (CD8:CD4:target cell). The number of target cells was quantified at various time points during co-culture (0 hrs, 12 hrs, 24 hrs, and 36 hrs) using fluorescence microscopy and imaging software.
(§2) FIG. 58 are fluorescence micrograph images of the co-culture assay described in FIG. 57, showing clearance of the SCC152 cells (pink) as co-culture with CD8+ T cells transduced with HPV16 E7 TCR and CD4+ T cells transduced with a selected CER (columns from left to right: control, CER29, CER30, CER110, or CER112) progresses (rows from top to bottom: 0 hrs, 12 hrs, 24 hrs, and 36 hrs).
as §2, with “59” for “58”, “CER113, CER114, CER116,” for “CER29, CER30, CER110,”, “CER117)” for “CER112)”
(§3) Elimination of target SCC152 cells was also detected by quantifying green fluorescent protein expression by SCC152 cells over time (0 hr, 24 hr, 48 hr) during co-incubation with CD8+ T cells transduced with HPV16 E7 specific TCR+ CD4 T cells transduced with selected CER (see, FIG. 20).
as §3, with “hr, 12 hr,” for “hr,”, “hr, 36” for “hr, 48”, “TCR+ CD4+” for “TCR+ CD4”, “CER (CER29, CER30, CER110, CER112, CER113, CER114, CER116, or CER117)” for “CER”, “FIG. 57).” for “FIG. 20).”

Molecule	number of SCC152 cells in time lapse imaging
CER17: Chimeric engulfment receptor: Tim4 binding, Tim4 transmembrane, TLR3 signaling; SEQ ID NO: 112 (protein, CER17, amino acids 1-22 are signal peptide) MSKGLLLLWLVTELWWLYLTPAASEDTIIGFLGQPVTLPCHYLSWSQSRNSMCWGKGSCPNSKCNAELLRTDGTRIISRKSTKYTLLGKVQFGEVSLTISNTNRGDSGVYCCRIEVPGWFNDVKKNVRLELRRATTTKKPTTTTRPTTTPYVTTTTPELLPTTVMTTSVLPTTTPPQTLATTAFSTAVTTCPSTTPGSFSQETTKGSAFTTESETLPASNHSQRSMMTISTDIAVLRPTGSNPGILPSTSQLTTQKTTLTTSESLQKTTKSHQINSRQTILIIACCVGFVLMVLLFLAFLEGWRISFYWNVSVHRVLGFKEIDRQTEQFEYAAYIIHAYKDKDWVWEHFSSMEKEDQSLKFCLEERDFEAGVFELEAIVNSIKRSRKIIFVITHHLLKDPLCKRFKVHHAVQQAIEQNLDSIILVFLEEIPDYKLNHALCLRRGMFKSHCILNWPVQKERIGAFRHKLQVALGSKNSVH	decreasing in numbers over time
CER26: Chimeric engulfment receptor: Tim4 binding, Tim4 transmembrane, TLR1 signaling; SEQ ID NO: 118 (protein, CER26, amino acids 1-22 are signal peptide) MSKGLLLLWLVTELWWLYLTPAASEDTIIGFLGQPVTLPCHYLSWSQSRNSMCWGKGSCPNSKCNAELLRTDGTRIISRKSTKYTLLGKVQFGEVSLTISNTNRGDSGVYCCRIEVPGWFNDVKKNVRLELRRATTTKKPTTTTRPTTTPYVTTTTPELLPTTVMTTSVLPTTTPPQTLATTAFSTAVTTCPSTTPGSFSQETTKGSAFTTESETLPASNHSQRSMMTISTDIAVLRPTGSNPGILPSTSQLTTQKTTLTTSESLQKTTKSHQINSRQTILIIACCVGFVLMVLLFLAFLSYLDLPWYLRMVCQWTQTRRRARNIPLEELQRNLQFHAFISYSGHDSFWVKNELLPNLEKEGMQICLHERNFVPGKSIVENIITCIEKSYKSIFVLSPNFVQSEWCHYELYFAHHNLFHEGSNSLILILLEPIPQYSIPSSYHKLKSLMARRTYLEWPKEKSKRGLFWANLRAAINIKLTEQAKK	decreasing in numbers over time
CER21: Chimeric engulfment receptor: Tim4 binding, Tim4 transmembrane, TLR8 signaling; SEQ ID NO: 96 (protein, CER21, amino acids 1-22 are signal peptide) MSKGLLLLWLVTELWWLYLTPAASEDTIIGFLGQPVTLPCHYLSWSQSRNSMCWGKGSCPNSKCNAELLRTDGTRIISRKSTKYTLLGKVQFGEVSLTISNTNRGDSGVYCCRIEVPGWFNDVKKNVRLELRRATTTKKPTTTTRPTTTPYVTTTTPELLPTTVMTTSVLPTTTPPQTLATTAFSTAVTTCPSTTPGSFSQETTKGSAFTTESETLPASNHSQRSMMTISTDIAVLRPTGSNPGILPSTSQLTTQKTTLTTSESLQKTTKSHQINSRQTILIIACCVGFVLMVLLFLAFLHHLFYWDVWFIYNVCLAKVKGYRSLSTSQTFYDAYISYDTKDASVTDWVINELRYHLEESRDKNVLLCLEERDWDPGLAIIDNLMQSINQSKKTVFVLTKKYAKSWNFKTAFYLALQRLMDENMDVIIFILLEPVLQHSQYLRLRQRICKSSILQWPDNPKAEGLFWQTLRNVVLTENDSRYNNMYVDSIKQY	decreasing in numbers over time
CER19: Chimeric engulfment receptor: Tim4 binding, Tim4 transmembrane, TLR5 signaling; SEQ ID NO: 95 (protein, CER19, amino acids 1-22 are signal peptide) MSKGLLLLWLVTELWWLYLTPAASEDTIIGFLGQPVTLPCHYLSWSQSRNSMCWGKGSCPNSKCNAELLRTDGTRIISRKSTKYTLLGKVQFGEVSLTISNTNRGDSGVYCCRIEVPGWFNDVKKNVRLELRRATTTKKPTTTTRPTTTPYVTTTTPELLPTTVMTTSVLPTTTPPQTLATTAFSTAVTTCPSTTPGSFSQETTKGSAFTTESETLPASNHSQRSMMTISTDIAVLRPTGSNPGILPSTSQLTTQKTTLTTSESLQKTTKSHQINSRQTILIIACCVGFVLMVLLFLAFLTKFRGFCFICYKTAQRLVFKDHPQGTEPDMYKYDAYLCFSSKDFTWVQNALLKHLDTQYSDQNRFNLCFEERDFVPGENRIANIQDAIWNSRKIVCLVSRHFLRDGWCLEAFSYAQGRCLSDLNSALIMVVVGSLSQYQLMKHQSIRGFVQKQQYLRWPEDFQDVGWFLHKLSQQILKKEKEKKKDNNIPLQTVATIS	decreasing in numbers over time
CER5: Chimeric engulfment receptor: Tim4 binding, Tim4 transmembrane, TLR4 signaling; SEQ ID NO: 94 (protein, CER5, amino acids 1-22 are signal peptide) MSKGLLLLWLVTELWWLYLTPAASEDTIIGFLGQPVTLPCHYLSWSQSRNSMCWGKGSCPNSKCNAELLRTDGTRIISRKSTKYTLLGKVQFGEVSLTISNTNRGDSGVYCCRIEVPGWFNDVKKNVRLELRRATTTKKPTTTTRPTTTPYVTTTTPELLPTTVMTTSVLPTTTPPQTLATTAFSTAVTTCPSTTPGSFSQETTKGSAFTTESETLPASNHSQRSMMTISTDIAVLRPTGSNPGILPSTSQLTTQKTTLTTSESLQKTTKSHQINSRQTILIIACCVGFVLMVLLFLAFLKFYFHLMLLAGCIKYGRGENIYDAFVIYSSQDEDWVRNELVKNLEEGVPPFQLCLHYRDFIPGVAIAANIIHEGFHKSRKVIVVVSQHFIQSRWCIFEYEIAQTWQFLSSRAGIIFIVLQKVEKTLLRQQVELYRLLSRNTYLEWEDSVLGRHIFWRRLRKALLDGKSWNPEGTVGTGCNWQEATSI	decreasing in numbers over time
CER23: Chimeric engulfment receptor: Tim4 binding, Tim4 transmembrane, TLR9 signaling; SEQ ID NO: 116 (protein, CER23, amino acids 1-22 are signal peptide) MSKGLLLLWLVTELWWLYLTPAASEDTIIGFLGQPVTLPCHYLSWSQSRNSMCWGKGSCPNSKCNAELLRTDGTRIISRKSTKYTLLGKVQFGEVSLTISNTNRGDSGVYCCRIEVPGWFNDVKKNVRLELRRATTTKKPTTTTRPTTTPYVTTTTPELLPTTVMTTSVLPTTTPPQTLATTAFSTAVTTCPSTTPGSFSQETTKGSAFTTESETLPASNHSQRSMMTISTDIAVLRPTGSNPGILPSTSQLTTQKTTLTTSESLQKTTKSHQINSRQTILIIACCVGFVLMVLLFLAFLGWDLWYCFHLCLAWLPWRGRQSGRDEDALPYDAFVVFDKTQSAVADWVYNELRGQLEECRGRWALRLCLEERDWLPGKTLFENLWASVYGSRKTLFVLAHTDRVSGLLRASFLLAQQRLLEDRKDVVVLVILSPDGRRSRYVRLRQRLCRQSVLLWPHQPSGQRSFWAQLGMALTRDNHHFYNRNFCQGPTAE	decreasing in numbers over time
